Changes are numbered by the printed parent chain.

3 molecules from paper PMC3695229, “Identification of a Novel TGF-β-Binding Site in the Zona Pellucida C-terminal (ZP-C) Domain of TGF-β-Receptor-3 (TGFR-3)” (PLoS ONE, 2013) can be followed below.

B1: murine TGFR-3-ZP (recombinant ZP domain of TGF-β receptor type 3, residues 438-782, including the EHP) (domain or fragment, mouse, UniProt O88393 438-782, looked up)
chain: REPEEVQGGVNIALSVKCDNEKMVVAVDKDSFQTNGYSGMELTLLDPSCKAKMNGTHFVLESPLNGCGTRHRRSAPDGVVYYNSIVVQAPSPGDSSGWPDGYEDLESGDNGFPGDTDEGETAPLSRAGVVVFNCSLRQLRSPSGFQDQLDGNATFNMELYNTDLFLVPSPGVFSVAENEHVYVEVSVTKADQDLGFAIQTCFISPYSNPDRMSDYTIIENICPKDDSVKFYSSKRVHFPIPHAEVDKKRFSFVFKSVFNTSLLFLHCELTLCSRNKGSQKLPKCVTPDDACTSLDATMIWTMMQNKKTFTKPLAVVLQVDYKENVPNMKESSPVPPPPQIFHGLD
modifications: secretory glycoprotein; four potential N-glycosylation sites (positions 491, 570, 589 and 696)
notes: TGF-β receptor type 3 (TGFR-3, betaglycan), mouse, residues 438-782 (ZP core domain plus C-terminal extension 729-782 with the EHP); numbering adheres to UniProtKB/TrEMBL O88393 and includes the N-terminal signal peptide; From the forward primer the thrombin site LVPRGS precedes residue 438, so Gly-Ser probably remain after cleavage (surmised); Dimer by DLS and SEC only (apparent masses); also …
B2: human BMP-2 (ligand, UniProt P12643 283-396, looked up)
chain: QAKHKQRKRLKSSCKRHPLYVDFSDVGWNDWIVAPPGYHAFYCHGECPFPLADHLNSTNHAIVQTLVNSVNSKIPKACCVPTELSAISMLYLDENEKVVLKNYQDMVVEGCGCR
modifications: biotinylated with Sulfo-NHS-LC-biotin (1 or 2 biotin moieties) for immobilisation
notes: bone morphogenetic protein 2, human; also called bone morphogenetic protein 2
B3: TGFR-3-ZP(234) (domain or fragment, mouse, UniProt O88393 438-782, looked up)
chain: B1 chain with N133Q, N152Q, N259Q
modifications: one remaining potential N-glycosylation site (N491)
notes: TGF-β receptor type 3 (TGFR-3, betaglycan), mouse, residues 438-782 with three of four potential N-glycosylation sites mutated to glutamine; numbering adheres to O88393 including the signal peptide; Same construct and vector as m1; also called glycosylation-attenuated TGFR-3-ZP variant; source: HEK293 EBNA cells, secreted, purified (Ni-Sepharose, thrombin cleavage, SEC); not shown: His6, …

Data set [1] deals with the molecule itself. The data set is described as follows: dynamic light scattering; TGFR-3-ZP alone, 2 mg/ml, 20 mM HEPES pH 7.4, 20°C; apparent molecular weight from hydrodynamic radius.
The data set “TGFR-3-ZP(234)” has as its target B3. The data set is described as follows: SPR; Biacore 2000; biotinylated ligands immobilised on streptavidin-coated CM5 chip, TGFR-3-ZP variants as analytes; 25°C, HBS500 (10 mM HEPES pH 7.4, 500 mM NaCl, 3.4 mM EDTA, 0.005% P20); apparent affinities from equilibrium binding. To be noted: both partners purified. For orientation: In SPR one partner is held on a chip, and binding of the other changes the refractive index at the surface.

For data set [2], the target named is B1. Described as above. The following applies: both partners purified.
Data set [3] concerns the molecule itself. The data set is described as follows: SEC; analytical SEC of the ligand-free protein on Superdex 200 10/300, 4°C, 0.5 ml/min; apparent molecular weight against standards.

In general, stoichiometry N refers to a count of units in the complex or per binding partner. Take B1: the “stoichiometry N” value in data set [1] came out at 2.
As for B2, the Kd with TGFR-3-ZP(234) came to 34.6 µM; in data set [2], 29.1 µM.
In the case of B3, the “stoichiometry N” value in data set [3] came out at 2.
